# According to publication PMC3928423, “RRP6 from Trypanosoma brucei: Crystal Structure of the Catalytic Domain, Association with EAP3 and Activity towards Structured and Non-Structured RNA Substrates” (PLoS ONE, 2014):
# T1: TbEAP3ΔC2 (Trypanosoma brucei, UniProt Q582G1 1-144)
# T1 sequence: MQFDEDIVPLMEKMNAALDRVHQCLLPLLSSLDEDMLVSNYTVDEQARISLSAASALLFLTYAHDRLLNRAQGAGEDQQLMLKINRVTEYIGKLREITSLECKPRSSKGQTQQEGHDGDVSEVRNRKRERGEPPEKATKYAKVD
# T2: TbEAP3ΔC1 (Trypanosoma brucei, UniProt Q582G1 1-183)
# T2 sequence: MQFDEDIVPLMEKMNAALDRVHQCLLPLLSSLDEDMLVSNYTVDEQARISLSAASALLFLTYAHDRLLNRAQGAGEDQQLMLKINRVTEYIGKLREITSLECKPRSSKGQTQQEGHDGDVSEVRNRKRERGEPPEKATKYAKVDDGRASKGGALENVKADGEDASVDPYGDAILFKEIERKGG
# Key:
# [1] = biological target: TbEAP3ΔC2 (residues 1 to 144) (Trypanosoma brucei); assay: SEC-MALS; HPLC (Shimadzu), Shodex KW-804 or KW-803 column, proteins at 5 mg/mL in 50 mM Tris-HCl pH 7.5, 500 mM NaCl, 5% glycerol, 0.5 mL/min; miniDAWN TREOS
# [2] = biological target: TbRRP6ΔC (residues 20 to 540) (Trypanosoma brucei) (UniProt Q95Z10); assay: as above
# [3] = biological target: TbEAP3ΔC2 (residues 1 to 144) (Trypanosoma brucei); assay: SEC-MALS; under reducing condition (10 mM DTT); data not shown
# TbEAP3ΔC2 = biological target: T1, TbEAP3ΔC2; assay: EMSA; 5 mM MnCl2; protein 5-50 uM; 10 mM Tris-HCl pH 8.0, 10 mM DTT, 25 mM KCl, 5 mM MnCl2; 50 nM oligonucleotide; 5, 10 or 50 uM protein; 30 min on ice; native 6% gel, 0.25x TBE, 0.5% glycerol; details: protein: recombinant, tags: pET21a, chain copies: 2
# TbEAP3ΔC1 = biological target: T2, TbEAP3ΔC1; assay: as above; details: protein: recombinant, tags: pET21a, chain copies: 2
# [4] = biological target: the molecule itself; assay: SEC-MALS; HPLC (Shimadzu), Shodex KW-804 or KW-803 column, proteins at 5 mg/mL in 50 mM Tris-HCl pH 7.5, 500 mM NaCl, 5% glycerol, 0.5 mL/min; miniDAWN TREOS
# [5] = label: 5'-FAM on strand 1, blunt
# [6] = label: 5'-FAM, hairpin with 20 nt 3' extension
molecule,measurement,setting,value
TbEAP3ΔC2 (residues 1 to 144) (domain or fragment),stoichiometry N,[1],2
same,stoichiometry N,[2],1
same,stoichiometry N,[3],2
dsRNA (dsRNA) RNA 1: CCAAAAAAAAAAAAACCACUCACUCACUCA RNA 2: UGAGUGAGUGAGUGGUUUUUUUUUUUUUGG,binding result,TbEAP3ΔC2; [5],no binding
same,binding result,TbEAP3ΔC1; [5],no binding
CCAAAAAAAAAAAAACCACUCACUCACUCA (ssRNA) [ssRNA],binding result,"TbEAP3ΔC2; label: 5'-FAM, single strand",no binding
same,binding result,"TbEAP3ΔC1; label: 5'-FAM, single strand",no binding
dsDNA (dsDNA) DNA 1: CCAAAAAAAAAAAAACCACTCACTCACTCA DNA 2: TGAGTGAGTGAGTGGTTTTTTTTTTTTTGG,binding result,TbEAP3ΔC2; [5],no binding
same,binding result,TbEAP3ΔC1; [5],no binding
CCAAAAAAAAAAAAACCACTCACTCACTCA (ssDNA) [ssDNA],binding result,"TbEAP3ΔC2; label: 5'-FAM, single strand",no binding
same,binding result,"TbEAP3ΔC1; label: 5'-FAM, single strand",no binding
AUUUAUUUAGGGCGGGCGCAAGCCCGCCCUAUUUAUUAUUUAUUAUUUA (structured_RNA) [GNRA20],binding result,TbEAP3ΔC2; [6],no binding
same,binding result,TbEAP3ΔC1; [6],no binding
"TbEAP3ΔC1 (residues 1 to 183) (domain or fragment, Trypanosoma brucei, UniProt Q582G1 1-183, looked up, TbEAP3, Trypanosoma brucei, gene Tb927.7.5460, residues 1-183 (C-terminal truncation); one copy in the heterodimer with TbRRP6ΔC; source: E. coli C3022 (pET21a), purified (His-Trap, Superdex 200, mono Q); also co-expressed with TbRRP6ΔC and co-purified) MQFDEDIVPLMEKMNAALDRVHQCLLPLLSSLDEDMLVSNYTVDEQARISLSAASALLFLTYAHDRLLNRAQGAGEDQQLMLKINRVTEYIGKLREITSLECKPRSSKGQTQQEGHDGDVSEVRNRKRERGEPPEKATKYAKVDDGRASKGGALENVKADGEDASVDPYGDAILFKEIERKGG",stoichiometry N,[2],1
same,stoichiometry N,[4],2
